Reference: the supplement of paper PMC10567573

B1: TPRG1 (parent)
chain: ETIQGFWLLTKIDHWNNEKERILL

Variants of: B1
Assay: protein stability index of a GFP-peptide fusion (GPS, HEK-293T) (PSI 1-6); higher = more stable
Settings: c terminus: a fixed tail appended
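Also: lentivirally expressed fusions sorted by FACS into six bins by GFP to DsRed ratio, PSI derived from sequencing read proportions per bin multiplied by bin number.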

Protein stability index, by site and new letter:
I12: M 3.11 | A 3.59 | K 2.07 | S 2.09 | G 1.13 | T 1.58 | N 2.83 | R 1.75 | H 1.9 | E 2.55 | C 2.08
L8: H 2.04 | G 1.61 | P 1.43 | N 1.99 | R 2.26 | V 2.27 | A 2.08 | S 1.56 | Q 1.53 | Y 4.07 | D 2.34 | K 3.05 | E 2.42 | W 1.43 | T 2.54
H14: E 2.51 | R 4.13 | G 1.34 | W 2.98 | V 3.16 | F 2.41 | S 2.41 | I 2.49 | D 2.88 | M 2.37 | L 2.25 | C 1.39
K11: G 2.08 | I 2.32 | L 1.49 | H 1.76 | D 1.93 | Y 4.47 | A 1.85 | R 1.54 | W 2.02 | S 1.71 | P 2.92 | F 3.4
N16: K 4.29 | A 2.06 | G 1.75 | T 3.58 | Q 1.77 | S 2.12 | F 2.65 | I 3.07 | M 1.63 | P 2.99 | E 1.92
D13: W 2.98 | P 2.19 | N 3.41 | M 1.04 | T 1.69 | Q 3.45 | K 3.06 | F 2.23 | I 3.03 | V 2.29 | A 3.1
E20: Q 2.27 | A 3.4 | N 2.53 | D 3.18 | P 2.37 | M 3.33 | L 3.61 | K 2.67
N17: Y 3.59 | C 2.54 | A 2.33 | I 2.46 | F 2.36 | Q 4.24 | M 3.42 | T 2.14 | K 3.22 | V 3.23 | S 2.2
E18: I 1.56 | A 2.8 | K 1.71 | C 2.45 | S 3.54 | V 3.83 | M 2.79 | H 2.3 | N 2.14 | L 3.57 | W 2.03
K19: G 1.76 | W 2.92 | V 1.62 | A 2.21 | R 4.12 | T 1.78 | Q 1.52 | C 2.12 | N 4.67 | I 2.47 | P 2.82 | E 1.69 | L 2.92 | Y 2.27
W7: T 1.51 | R 2.23 | H 1.04 | L 2.08 | N 2.18 | V 3.28 | Q 1.83 | P 2.56 | K 1.86 | M 3.58 | S 2.1
W15: V 2.49 | E 2.05 | Q 2.09 | H 2.16 | C 1.56 | G 4.15 | K 2.04 | I 1.74 | D 1.62 | N 1.57 | R 3.5 | P 2.2
T10: D 1.8 | P 1.65 | S 2.49 | Y 2.44 | I 3.71 | A 3.73 | N 1.34 | E 2.91 | G 2.35 | F 1.96 | H 2.31 | R 1.01 | W 2.45
L9: K 1.54 | M 2.1 | G 2.15 | R 1.49 | P 2.7 | T 1.33 | H 1.87 | D 1.58 | F 3.19 | E 2.2 | C 2.35 | S 2.88 | Q 1.65 | N 1.16 | I 3
